In patent US20240247301A1, “DIAGNOSTIC ASSAY FOR CLASSIC INBORN GALACTOSEMIA” (Ohio State Innovation Foundation, priority 2022, published 2024):

Legend:
[1] = YidA substrate-specificity test, initial velocity for Glc-1-P versus Gal-1-P; type: biochemical, Salmonella; conditions: 3 mM Glc-1-P or 3 mM Gal-1-P, 3 mM MgCl2
From the text: FIGS. 1A-B show substrate-recognition bias of YidA for Glc-1-P over Gal-1P. […] The data represent mean±standard error determined from two independent trials. […] The Km and kcat values listed represent the mean±standard error from two independent trials.
Nearly homogeneous recombinant Salmonella YidA by overexpressing it in E. coli SixPack cells were obtained (Lipinszki et al. 2018) (FIG. 3A). N-terminal fusions with a small ubiquitin-like modifier (SUMO) domain were engineered to enhance solubility (Marblestone et al. 2006) and a His6 tag to facilitate affinity purification (FIG. 3A). To measure the phosphatase activity of YidA, malachite green, a cationic dye that forms with free orthophosphate and molybdate a green-colored complex (Abs620) was used; this assay can measure nanomolar concentrations of orthophosphate (FIG. 4). Since YidA is a Mg^2+-dependent phosphatase, its activity with Glc-1-P in the presence of 0-5 mM MgCl2 was first tested and determined that 3 mM MgCl2 was optimal (FIG. 5).

[2] = earlier qualitative observation (Kuznetsova et al. 2006); cited from earlier work
[3] = Duarte GalT-YidA coupled assay (malachite green); type: biochemical; conditions: recombinant Duarte GalT, substrate Gal-1-P
Protocol: The assay contained 25 mM 4-(2-hydroxyethyl)-1-piperazineethanesulfonic acid (HEPES) (pH 8.0), 3 mM MgCl2, 2 mM DTT, 1 mM UDP-glucose (Sigma-Aldrich), 3 mM YidA, and varying amounts of His6-tagged Duarte GalT: 0.25 mM GalT for ≤0.1-mM Gal-1P, and 0.1 mM GalT for ≥0.1-mM Gal-1P (Table 3). […] These 2-μL aliquots were added to a 384-well plate which were pre-dispensed to test wells 18 μL of water and 5 μL of malachite green reagent. […] These specific time courses (using four time points; Table 3) and the appropriate dilutions were performed to maintain product formation in the linear range. To determine the Km and kcat values, the initial velocity calculated at each substrate concentration was subject to the Michaelis-Menten curve-fitting option in Kaleidagraph (Synergy Software).

[4] = Duarte GalT variant; cited from earlier work
[5] = YihX kinetic studies (malachite green phosphate assay); type: biochemical, Salmonella; conditions: Glc 1-P versus 6-P-F-Asp
From the text: Top panel reproduced from Monroy, et al., 2013.
The Km and kcat values are listed here with their respective curve-fit errors (see summary in Table 4).
Salmonella YihX was purified after overexpression in E. coli BL21 (DE3) pLysS cells. His6-YihX was purified under denaturing conditions using immobilized metal-affinity chromatography. Following purification, YihX was refolded by stepdown dialysis to remove the denaturant. […] YihX offers the basis for a simpler and more sensitive assay to diagnose classic galactosemia.

B1: YidA: recombinant Salmonella sugar-phosphate phosphatase of the HAD superfamily, overexpressed in E. coli SixPack cells; SUMO tag removed unless stated (protein, listed as Salmonella typhimurium)
chain: MAIKLIAIDMDGTLLLPDHTISPAVKNAIAAAREKGVNVVLTTGRPYAGVHSYLKELHMEQPGDYCITYNGALVQKAGDGSTVAQTALSYDDYRYLEKLSREVGSHFHALDRNTLYTANRDISYYTVHESYVATIPLVFCEAEKMDPNTQFLKVMMIDEPAVLDRAIARIPAEVKEKYTVLKSAPYFLEILDKRVNKGTGVKSLVEALGIKPEEVMAIGDQENDIAMIEYAGMGVAMDNAIPSVKEVANFVTKSNLEDGVAWAIEKFVLNPDHSSGHFPAR
modifications: Description of sequence: YidA
notes: recombinant Salmonella sugar-phosphate phosphatase of the HAD superfamily, overexpressed in E. coli SixPack cells; SUMO tag removed unless stated
preference for Glc-1-P over Gal-1-P (initial velocity) [1]: ≥ 40 fold

B2: E. coli YidA: E. coli YidA phosphatase documented in a previous study (Kuznetsova et al. 2006) (protein, UniProt P0A8Y5 1-270, looked up)
Sugar phosphatase YidA: MAIKLIAIDMDGTLLLPDHTISPAVKNAIAAARARGVNVVLTTGRPYAGVHNYLKELHMEQPGDYCITYNGALVQKAADGSTVAQTALSYDDYRFLEKLSREVGSHFHALDRTTLYTANRDISYYTVHESFVATIPLVFCEAEKMDPNTQFLKVMMIDEPAILDQAIARIPQEVKEKYTVLKSAPYFLEILDKRVNKGTGVKSLADVLGIKPEEIMAIGDQENDIAMIEYAGVGVAMDNAIPSVKEVANFVTKSNLEDGVAFAIEKYVLN
dephosphorylation of Gal-1-P compared to Glc-1-P (qualitative) [2]: negligible dephosphorylation of Gal-1-P compared to Glc-1-P

B3: Duarte GalT: recombinant His6-tagged Duarte variant of galactose-1-phosphate uridylyl transferase, clone from Addgene (GALTA-c001) (protein, UniProt P07902 1-379, looked up, variant N314D)
Galactose-1-phosphate …: MSRSGTDPQQRQQASEADAAAATFRANDHQHIRYNPLQDEWVLVSAHRMKRPWQGQVEPQLLKTVPRHDPLNPLCPGAIRANGEVNPQYDSTFLFDNDFPALQPDAPSPGPSDHPLFQAKSARGVCKVMCFHPWSDVTLPLMSVPEIRAVVDAWASVTEELGAQYPWVQIFENKGAMMGCSNPHPHCQVWASSFLPDIAQREERSQQAYKSQHGEPLLMEYSRQELLRKERLVLTSEHWLVLVPFWATWPYQTLLLPRRHVRRLPELTPAERDDLASIMKKLLTKYDNLFETSFPYSMGWHGAPTGSEAGANWDHWQLHAHYYPPLLRSATVRKFMVGYEMLAQAQRDLTPEQAAERLRALPEVHYHLGQKDRETATIA
increase in kcat/Km, YidA-based assay versus PGM-G6PDH coupled assay [3]: ~2.5 fold
activity relative to wild-type GalT [4]: ~25%

B4: YihX: recombinant Salmonella HAD-like sugar-phosphate phosphatase, overexpressed in E. coli BL21 (DE3) pLysS cells and refolded (protein, listed as Salmonella typhimurium)
chain: MLYIFDLGNVIVDIDFNRVLGVWSDLSRVPLASLKQKFTMGETFHQHERGEITDEAFAEAFCHEMALSLSYEQFAHGWQAVFVGLRPEVIAIMHKLREQGHRVVVLSNTNRLHTHFWPEEYPEVRAAADHIYLSQDLGMRKPEARIYQHVLQKEGFSAADAVFFDDNADNIEGANQLGITSILVKDKATIPDYFAKLLC
modifications: Description of sequence: YihX
substrate hydrolysis (qualitative) [5]: hydrolyzes glucose 1-phosphate (Glc 1-P) but not 6-P-F-Asp
